B1: TMEM175 (parent)
chain: ALLHQAETLQPSVWFGGREHVLMF
B2: ZNF649 (parent)
chain: LTEHKRIHTGKKPHVCSLCGKAFY

Variants of: B1
Test: protein stability index of a GFP-peptide fusion (GPS, HEK-293T) (PSI 1-6); higher = more stable
Conditions: c terminus: a fixed tail appended
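Further: lentivirally expressed fusions sorted by FACS into six bins by GFP to DsRed ratio, PSI derived from sequencing read proportions per bin multiplied by bin number.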

Protein stability index: each site, then its substitutions
V21: G 2.89, D 1.77, P 2.11, H 2.89, I 1.53, Y 1.7, W 1.57, E 1.53, S 1.52, N 2.02, M 2.55, R 2.18, K 2.1, L 2.41, Q 1.69
M23: L 3.66, F 1.67, R 1.03, Q 1.84, E 3.67, N 1.58, H 2.39, I 2.59, V 1.27, G 3.51, K 1.74, D 1.04, A 1.2, P 1.35
L22: T 1.78, P 2.05, Y 2.94, Q 1.9, V 3.06, A 1.1, K 1.94, C 3.13, H 2.68, F 2.44, E 2.09, R 1.93, G 1.77, M 2.03, N 2.19, S 2.06
F24: R 2.56, P 1.54, T 2, E 2.15, M 3.11, L 2.21, K 2.5, N 3.21, G 1.47, D 2.69, S 2.56, Q 2.4, W 2.13, H 2.15

Variants of: B2
Test: as above
Conditions: c terminus: a fixed tail appended

Protein stability index, by site and new letter:
H4: I 2.19, S 2.58, G 2.4, W 2.78, M 2.47, P 2.43, N 2.84, R 2.24, E 3.02, C 2.78, A 2.22, D 2.9, Q 3.31, L 2.11, T 2.52, K 2.28, Y 2.36, V 1.94, F 2.33
E3: W 1.71, T 1.67, P 2.45, L 1.15, M 1.89

Reference: the supplement of paper PMC10567573
